The data set “SDS-PAGE” concerns the molecule itself. The experiment in a line: SDS-PAGE.
For data set [1], the target named is T1, Potassium channel KcsA, wild-type (Streptomyces lividans), P0A334.
T1 chain: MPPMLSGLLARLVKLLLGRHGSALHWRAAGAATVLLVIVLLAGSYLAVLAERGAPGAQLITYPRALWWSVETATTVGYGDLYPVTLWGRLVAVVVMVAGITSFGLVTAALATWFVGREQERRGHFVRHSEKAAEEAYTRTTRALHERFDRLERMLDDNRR
The experiment in a line: SDS-PAGE. The note with it: remark: other sources report otherwise.

B1: ΔN-KcsA (KcsA lacking the first 18 amino acids, Δ1–18) (domain or fragment, Streptomyces lividans, UniProt P0A334 19-160, looked up)
chain: RHGSALHWRAAGAATVLLVIVLLAGSYLAVLAERGAPGAQLITYPRALWWSVETATTVGYGDLYPVTLWGRLVAVVVMVAGITSFGLVTAALATWFVGREQERRGHFVRHSEKAAEEAYTRTTRALHERFDRLERMLDDNRR
As to B1, the “stoichiometry N” value in “SDS-PAGE” was found to be 4.

B2: Potassium channel KcsA, wild-type, P0A334 1-160 (natural protein)
chain: MPPMLSGLLARLVKLLLGRHGSALHWRAAGAATVLLVIVLLAGSYLAVLAERGAPGAQLITYPRALWWSVETATTVGYGDLYPVTLWGRLVAVVVMVAGITSFGLVTAALATWFVGREQERRGHFVRHSEKAAEEAYTRTTRALHERFDRLERMLDDNRR
B2 showed a stoichiometry N in data set [1] of 4.

The stoichiometry N is the number of molecules, sites or subunits per partner or assembly.

These data come from PMC2852523 (The Journal of Membrane Biology, 2010).
